Experiments:
myoglobin = myoglobin (horse, UniProt P68082 2-154); experiment: EMSA
[1] = molecular target: MERS-CoV Spike S1 protein (Middle East respiratory syndrome …, UniProt K9N5Q8 18-751); experiment: bead-based fluorescence binding assay
MERS-CoV Spike S1 protein, sequence (K9N5Q8 18-751): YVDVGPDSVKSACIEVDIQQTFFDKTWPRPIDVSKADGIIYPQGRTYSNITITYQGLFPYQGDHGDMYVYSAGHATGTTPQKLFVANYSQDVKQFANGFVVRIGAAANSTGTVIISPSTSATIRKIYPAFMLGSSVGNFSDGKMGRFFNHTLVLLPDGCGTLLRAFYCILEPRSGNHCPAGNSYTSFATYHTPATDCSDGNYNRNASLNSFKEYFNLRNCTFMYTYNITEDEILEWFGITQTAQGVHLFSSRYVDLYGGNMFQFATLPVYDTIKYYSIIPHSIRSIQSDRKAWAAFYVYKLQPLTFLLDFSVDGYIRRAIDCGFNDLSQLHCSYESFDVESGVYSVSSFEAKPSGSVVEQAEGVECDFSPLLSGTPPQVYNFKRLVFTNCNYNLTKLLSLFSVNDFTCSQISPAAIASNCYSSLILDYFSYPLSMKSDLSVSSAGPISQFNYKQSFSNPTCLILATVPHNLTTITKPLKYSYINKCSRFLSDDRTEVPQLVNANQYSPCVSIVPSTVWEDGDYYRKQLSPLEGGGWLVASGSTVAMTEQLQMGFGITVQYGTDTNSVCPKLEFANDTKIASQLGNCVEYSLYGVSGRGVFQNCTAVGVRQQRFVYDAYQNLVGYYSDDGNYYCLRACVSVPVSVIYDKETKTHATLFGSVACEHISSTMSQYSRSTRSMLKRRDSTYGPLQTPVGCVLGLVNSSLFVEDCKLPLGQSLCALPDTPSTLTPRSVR

myoglobin, sequence (P68082 2-154): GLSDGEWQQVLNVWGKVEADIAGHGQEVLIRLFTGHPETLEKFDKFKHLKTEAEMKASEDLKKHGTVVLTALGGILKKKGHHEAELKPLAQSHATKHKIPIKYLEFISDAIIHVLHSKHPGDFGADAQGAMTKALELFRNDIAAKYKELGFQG

B1: MF MERS aptamer (3WJ of MERSapt-3WJa, MB/3WJb, NH2/3WJc) (structured_DNA)
DNA 1: TGACACCGTACCTGCTCTGCACTTCCTTCACCAGAAACCTGCACATCTTCGCCGCGTGAAGCACGCCAAGGGACTATTTGCCATGTGTATGTGGG
DNA 2: TTTGGGTAGGGCGGGTTGGGCCCACATACTTTGTTGATCC
DNA 3: GGATCAATCATGGCAA
modifications: 5' NH2 on S6
myoglobin
  binding result: no binding

B2: S-19 aptamer (ssDNA)
DNA: TGACACCGTACCTGCTCTGCACTTCCTTCACCAGAAACCTGCACATCTTCGCCGCGTGAAGCACGCCAAGGGACTAT
[1]
  Kd: 112 ± 3.89 nM

B3: S-12 aptamer (MERS aptamer-b) (ssDNA)
DNA: TGACACCGTACCTGCTCTCCGACCCATCTAGCACTTCACACACGCCCGATCGGATTAGTAAGCACGCCAAGGGACTAT
[1]
  Kd: 287 ± 17.7 nM

Source: article PMC8582077
